Source: publication PMC6128213

Molecular target: human fibronectin (human) (UniProt P02751)
Experiment: AFM single molecule force spectroscopy

pilus-1 adhesin RrgA from Streptococcus pneumoniae (natural protein)
most probable rupture force fMP: 51.6 pN
